IntAct's records for PubMed 29892012

B1: Exportin-6 (Homo sapiens), Q96QU8 (parent)
chain: MASEEASLRALESLMTEFFHDCTTNERKREIEELLNNFAQQIGAWRFCLYFLSSTRNDYVMMYSLTVFENLINKMWLGVPSQDKMEIRSCLPKLLLAHHKTLPYFIRNKLCKVIVDIGRQDWPMFYHDFFTNILQLIQSPVTTPLGLIMLKTTSEELACPREDLSVARKEELRKLLLDQVQTVLGLLTGILETVWDKHSVTAATPPPSPTSGESGDLLSNLLQSPSSAKLLNQPIPILDVESEYICSLALECLAHLFSWIPLSASITPSLLTTIFHFARFGCDIRARKMASVNGSSQNCVSGQERGRLGVLAMSCINELMSKNCVPMEFEEYLLRMFQQTFYLLQKITKDNNAHTVKSRLEELDESYIEKFTDFLRLFVSVHLRRIESYSQFPVVEFLTLLFKYTFHQPTHEGYFSCLDIWTLFLDYLTSKIKSRLGDKEAVLNRYEDALVLLLTEVLNRIQFRYNQAQLEELDDETLDDDQQTEWQRYLRQSLEVVAKVMELLPTHAFSTLFPVLQDNLEVYLGLQQFIVTSGSGHRLNITAENDCRRLHCSLRDLSSLLQAVGRLAEYFIGDVFAARFNDALTVVERLVKVTLYGSQIKLYNIETAVPSVLKPDLIDVHAQSLAALQAYSHWLAQYCSEVHRQNTQQFVTLISTTMDAITPLISTKVQDKLLLSACHLLVSLATTVRPVFLISIPAVQKVFNRITDASALRLVDKAQVLVCRALSNILLLPWPNLPENEQQWPVRSINHASLISALSRDYRNLKPSAVAPQRKMPLDDTKLIIHQTLSVLEDIVENISGESTKSRQICYQSLQESVQVSLALFPAFIHQSDVTDEMLSFFLTLFRGLRVQMGVPFTEQIIQTFLNMFTREQLAESILHEGSTGCRVVEKFLKILQVVVQEPGQVFKPFLPSIIALCMEQVYPIIAERPSPDVKAELFELLFRTLHHNWRYFFKSTVLASVQRGIAEEQMENEPQFSAIMQAFGQSFLQPDIHLFKQNLFYLETLNTKQKLYHKKIFRTAMLFQFVNVLLQVLVHKSHDLLQEEIGIAIYNMASVDFDGFFAAFLPEFLTSCDGVDANQKSVLGRNFKMDRDLPSFTQNVHRLVNDLRYYRLCNDSLPPGTVKL
B2: Myotubularin-related protein 9 (Homo sapiens), Q96QG7 (parent)
chain: MEFAELIKTPRVDNVVLHRPFYPAVEGTLCLTGHHLILSSRQDNTEELWLLHSNIDAIDKRFVGSLGTIIIKCKDFRIIQLDIPGMEECLNIASSIEALSTLDSITLMYPFFYRPMFEVIEDGWHSFLPEQEFELYSSATSEWRLSYVNKEFAVCPSYPPIVTVPKSIDDEALRKVATFRHGGRFPVLSYYHKKNGMVIMRSGQPLTGTNGRRCKEDEKLINATLRAGKRGYIIDTRSLNVAQQTRAKGGGFEQEAHYPQWRRIHKSIERYHILQESLIKLVEACNDQTHNMDRWLSKLEASNWLTHIKEILTTACLAAQCIDREGASILIHGTEGTDSTLQVTSLAQIILEPRSRTIRGFEALIEREWLQAGHPFQQRCAQSAYCNTKQKWEAPVFLLFLDCVWQILRQFPCSFEFNENFLIMLFEHAYASQFGTFLGNNESERCKLKLQQKTMSLWSWVNQPSELSKFTNPLFEANNLVIWPSVAPQSLPLWEGIFLRWNRSSKYLDEAYEEMVNIIEYNKELQAKVNILRRQLAELETEDGMQESP
partner: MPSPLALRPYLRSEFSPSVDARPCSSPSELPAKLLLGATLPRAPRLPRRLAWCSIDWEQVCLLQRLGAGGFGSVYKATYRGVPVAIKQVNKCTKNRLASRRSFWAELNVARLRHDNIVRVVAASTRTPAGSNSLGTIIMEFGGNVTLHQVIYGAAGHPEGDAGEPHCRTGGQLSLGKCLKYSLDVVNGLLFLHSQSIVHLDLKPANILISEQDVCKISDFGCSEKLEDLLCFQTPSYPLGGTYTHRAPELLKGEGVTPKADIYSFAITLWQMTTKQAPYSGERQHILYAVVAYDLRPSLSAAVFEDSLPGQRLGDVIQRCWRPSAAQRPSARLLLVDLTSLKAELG
B3: Cell division cycle-associated 7-like protein (Homo sapiens), Q96GN5 (parent)
chain: MELATRYQIPKEVADIFNAPSDDEEFVGFRDDVPMETLSSEESCDSFDSLESGKQQDVRFHSKYFTEELRRIFIEDTDSETEDFAGFTQSDLNGKTNPEVMVVESDLSDDGKASLVSEEEEDEEEDKATPRRSRSRRSSIGLRVAFQFPTKKLANKPDKNSSSEQLFSSARLQNEKKTILERKKDCRQVIQREDSTSESEDDSRDESQESSDALLKRTMNIKENKAMLAQLLAELNSMPDFFPVRTPTSASRKKTVRRAFSEGQITRRMNPTRSARPPEKFALENFTVSAAKFAEEFYSFRRRKTIGGKCREYRRRHRISSFRPVEDITEEDLENVAITVRDKIYDKVLGNTCHQCRQKTIDTKTVCRNQGCCGVRGQFCGPCLRNRYGEDVRSALLDPDWVCPPCRGICNCSYCRKRDGRCATGILIHLAKFYGYDNVKEYLESLQKELVEDN
partner: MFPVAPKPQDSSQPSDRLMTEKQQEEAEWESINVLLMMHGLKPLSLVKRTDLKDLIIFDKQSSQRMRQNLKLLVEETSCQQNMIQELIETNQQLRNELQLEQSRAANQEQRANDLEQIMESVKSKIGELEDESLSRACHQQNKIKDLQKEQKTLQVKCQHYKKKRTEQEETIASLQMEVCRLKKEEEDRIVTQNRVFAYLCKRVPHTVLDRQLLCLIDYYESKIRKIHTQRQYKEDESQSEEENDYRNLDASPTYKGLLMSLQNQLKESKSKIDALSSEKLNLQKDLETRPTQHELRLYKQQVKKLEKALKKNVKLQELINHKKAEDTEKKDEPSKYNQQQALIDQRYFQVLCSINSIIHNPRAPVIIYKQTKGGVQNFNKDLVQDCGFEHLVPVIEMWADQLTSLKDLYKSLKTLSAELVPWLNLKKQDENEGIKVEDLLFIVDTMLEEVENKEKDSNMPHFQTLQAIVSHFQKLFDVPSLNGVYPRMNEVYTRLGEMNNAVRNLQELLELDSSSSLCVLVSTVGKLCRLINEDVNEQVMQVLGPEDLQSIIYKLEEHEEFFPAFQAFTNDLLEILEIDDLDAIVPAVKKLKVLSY
B4: Myotubularin-related protein 9 (Homo sapiens), Q96QG7 (parent)
chain: B2 chain
B5: Coiled-coil domain-containing protein 120 (Homo sapiens), Q96HB5-4 (parent)
chain: MRREPRYQGQVGPDIHTDSERTLSSHQPRPLDSTKMEVKGQLISSPTFNAPAALFGEAAPQVKSERLRGLLDRQRTLQEALSLKLQELRKVCLQEAELTGQLPPECPLEPGERPQLVRRRPPTARAYPPPHPNQAHHSLCPAEELALEALEREVSVQQQIAAAARRLALAPDLSTEQRRRRRQVQADALRRLHELEEQLRDVRARLGLPVLPLPQPLPLSTGSVITTQGVCLGMRLAQLSQEDVVLHSESSSLSESGASHDNEEPHGCFSLAERPSPPKAWDQLRAVSGGSPERRTPWKPPPSDLYGDLKSRRNSVASPTSPTRSLPRSASSFEGRSVPATPVLTRGAGPQLCKPEGLHSRQWSGSQDSQMGFPRADPASDRASLFVARTRRSNSSEALLVDRAAGGGAGSPPAPLAPSASGPPVCKSSEVLYERPQPTPAFSSRTAGPPDPPRAARPSSAAPASRGAPRLPPVCGDFLLDYSLDRGLPRSGGGTGWGELPPAAEVPGPLSRRDGLLTMLPGPPPVYAADSNSPLLRTKDPHTRATRTKPCGLPPEAAEGPEVHPNPLLWMPPPTRIPSAGERSGHKNLALEGLRDWYIRNSGLAAGPQRRPVLPSVGPPHPPFLHARCYEVGQALYGAPSQAPLPHSRSFTAPPVSGRYYADFLYPPELSARLSDLTLEGEQSSSSDTQTPGTLV
partner: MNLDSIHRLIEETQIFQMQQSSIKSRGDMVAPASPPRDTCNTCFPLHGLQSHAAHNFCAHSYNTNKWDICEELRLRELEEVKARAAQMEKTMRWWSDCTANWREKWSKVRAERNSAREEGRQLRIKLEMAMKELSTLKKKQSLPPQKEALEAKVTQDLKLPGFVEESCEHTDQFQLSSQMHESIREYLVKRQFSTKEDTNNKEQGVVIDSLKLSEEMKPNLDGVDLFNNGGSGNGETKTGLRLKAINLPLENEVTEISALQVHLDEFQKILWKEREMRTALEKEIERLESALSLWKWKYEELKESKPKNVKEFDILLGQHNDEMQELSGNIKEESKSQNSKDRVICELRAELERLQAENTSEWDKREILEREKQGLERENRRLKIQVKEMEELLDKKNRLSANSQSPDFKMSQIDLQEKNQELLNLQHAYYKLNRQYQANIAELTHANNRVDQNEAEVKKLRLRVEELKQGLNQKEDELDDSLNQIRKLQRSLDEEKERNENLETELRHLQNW
B6: Ribosome assembly protein METTL17, mitochondrial (Homo sapiens), Q9H7H0 (parent)
chain: MAAALKCLLTLGRWCPGLGVAPQARALAALVPGVTQVDNKSGFLQKRPHRQHPGILKLPHVRLPQALANGAQLLLLGSAGPTMENQVQTLTSYLWSRHLPVEPEELQRRARHLEKKFLENPDLSQTEEKLRGAVLHALRKTTYHWQELSYTEGLSLVYMAARLDGGFAAVSRAFHEIRARNPAFQPQTLMDFGSGTGSVTWAAHSIWGQSLREYMCVDRSAAMLVLAEKLLKGGSESGEPYIPGVFFRQFLPVSPKVQFDVVVSAFSLSELPSKADRTEVVQTLWRKTGHFLVLVENGTKAGHSLLMDARDLVLKGKEKSPLDPRPGFVFAPCPHELPCPQLTNLACSFSQAYHPIPFSWNKKPKEEKFSMVILARGSPEEAHRWPRITQPVLKRPRHVHCHLCCPDGHMQHAVLTARRHGRDLYRCARVSSWGDLLPVLTPSAFPPSTAQDPSES
partner: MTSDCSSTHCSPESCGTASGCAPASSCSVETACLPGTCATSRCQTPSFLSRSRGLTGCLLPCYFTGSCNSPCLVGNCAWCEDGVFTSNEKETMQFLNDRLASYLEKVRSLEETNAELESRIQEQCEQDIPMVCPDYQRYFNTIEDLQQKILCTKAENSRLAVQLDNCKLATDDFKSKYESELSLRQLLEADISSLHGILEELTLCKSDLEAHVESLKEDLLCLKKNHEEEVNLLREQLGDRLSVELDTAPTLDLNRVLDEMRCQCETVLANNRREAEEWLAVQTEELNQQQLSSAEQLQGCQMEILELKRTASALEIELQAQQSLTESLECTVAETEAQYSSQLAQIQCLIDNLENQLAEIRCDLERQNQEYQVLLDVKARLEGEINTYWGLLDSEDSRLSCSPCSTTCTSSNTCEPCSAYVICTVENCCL

Variants of: B1
Conditions: with nup62_human NUP62, P37198
nup62_human NUP62, P37198, sequence (P37198 whole entry): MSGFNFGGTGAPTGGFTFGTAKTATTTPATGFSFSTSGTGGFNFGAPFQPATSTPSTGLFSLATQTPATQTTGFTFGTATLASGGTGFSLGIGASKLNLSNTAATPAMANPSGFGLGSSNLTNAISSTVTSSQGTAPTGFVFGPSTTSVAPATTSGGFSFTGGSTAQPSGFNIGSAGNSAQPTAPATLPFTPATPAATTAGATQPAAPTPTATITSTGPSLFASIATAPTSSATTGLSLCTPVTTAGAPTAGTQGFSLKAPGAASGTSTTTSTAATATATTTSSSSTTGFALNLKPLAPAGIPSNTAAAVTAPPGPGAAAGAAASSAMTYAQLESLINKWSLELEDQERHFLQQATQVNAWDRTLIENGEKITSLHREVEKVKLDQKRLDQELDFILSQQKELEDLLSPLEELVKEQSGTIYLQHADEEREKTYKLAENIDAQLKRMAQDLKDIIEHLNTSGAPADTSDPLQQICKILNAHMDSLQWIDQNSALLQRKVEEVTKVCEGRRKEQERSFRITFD

effect of a mutation on the interaction | Variant
with no effect | L512V

Variants of: B2
Conditions: with mos_human MOS

effect of a mutation on the interaction | Variant
with no effect | R359S

Variants of: B3
Conditions: with cep70_human CEP70, Q8NHQ1

effect of a mutation on the interaction | Variant
with no effect | R268H

Variants of: B4
Conditions: with emil1_human EMILIN1, Q9Y6C2
emil1_human EMILIN1, Q9Y6C2, sequence (Q9Y6C2 whole entry): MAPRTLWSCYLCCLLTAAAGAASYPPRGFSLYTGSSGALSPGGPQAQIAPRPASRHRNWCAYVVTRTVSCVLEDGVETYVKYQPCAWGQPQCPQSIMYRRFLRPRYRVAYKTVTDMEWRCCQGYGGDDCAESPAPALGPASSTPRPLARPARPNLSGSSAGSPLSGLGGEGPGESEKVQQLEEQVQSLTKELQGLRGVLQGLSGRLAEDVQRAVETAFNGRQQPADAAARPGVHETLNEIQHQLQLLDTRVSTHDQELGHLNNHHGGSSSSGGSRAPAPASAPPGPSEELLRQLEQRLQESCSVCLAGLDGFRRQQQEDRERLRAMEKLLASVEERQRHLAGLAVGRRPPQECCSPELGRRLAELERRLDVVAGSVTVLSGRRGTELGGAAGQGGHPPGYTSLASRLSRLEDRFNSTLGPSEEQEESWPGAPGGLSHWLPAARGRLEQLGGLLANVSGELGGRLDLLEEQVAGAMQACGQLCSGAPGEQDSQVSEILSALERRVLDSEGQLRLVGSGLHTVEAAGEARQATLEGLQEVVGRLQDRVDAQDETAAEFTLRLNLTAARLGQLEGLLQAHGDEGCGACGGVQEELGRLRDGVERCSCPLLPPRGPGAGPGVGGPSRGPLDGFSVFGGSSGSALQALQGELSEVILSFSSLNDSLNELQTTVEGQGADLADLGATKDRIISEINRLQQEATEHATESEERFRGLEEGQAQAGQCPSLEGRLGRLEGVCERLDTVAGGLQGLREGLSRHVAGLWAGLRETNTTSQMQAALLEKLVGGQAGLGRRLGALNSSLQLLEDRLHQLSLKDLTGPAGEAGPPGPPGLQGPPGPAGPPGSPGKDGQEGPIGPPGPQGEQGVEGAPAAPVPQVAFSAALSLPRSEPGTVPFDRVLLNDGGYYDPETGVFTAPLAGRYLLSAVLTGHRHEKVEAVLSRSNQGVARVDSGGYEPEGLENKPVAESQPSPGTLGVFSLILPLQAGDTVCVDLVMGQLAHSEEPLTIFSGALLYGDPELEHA

effect of a mutation on the interaction | Variant
with no effect | R359S

Variants of: B5
Conditions: with CCDC102B

effect of a mutation on the interaction | Variant
with no effect | R346W

Variants of: B6
Conditions: with KRT40, Q6A162

effect of a mutation on the interaction | Variant
with no effect | R212H
